Ends that are not written are not given here.
What was measured:
Type in all cases: physicochemical
[1] = Retention of peptides on Costar polypropylene V-bottom wells; conditions: 400V scan; for Untreated fluorescence: unwashed; for Retained fluorescence: washed 15 minutes in 1 M NaCl in 10 mM tris-HCl (pH 8.0)
Procedure: (§1) The retention of peptides 2DOS-1 to 2DOS-16 (see above) on polypropylene and polystyrene surfaces was compared:
(§2) 5 mM tris-HCl (pH 8.0) in 75% (v/v) aqueous acetonitrile was used as the solvent for the peptides and for TAMRA.
(§3) 20 μl aliquots of 5 μM peptides 2DOS-1 to 2DOS-16 and 5 μM TAMRA were pipetted into the wells of a Costar V-bottomed polypropylene microtitre plate, a Greiner V-bottomed polypropylene microtitre plate, and a Greiner V-bottomed polystyrene microtitre plate according to the scheme shown in FIG. 26:
(§4) The peptide samples were allowed to evaporate to dryness in the dark.
(§5) The peptide samples in the top two rows of the microtitre plates were then incubated for 15 minutes at room temperature in 250 μl of 1 M NaCl in 10 mM tris-HCl (pH 8.0).
(§6) After incubation, the wash buffer was pipetted up and down eight times in the well before removing the supernatant.
(§7) The washed and untreated peptide samples were then resuspended in 50 μl of 10 mM tris-HCl (pH 8.0) in 50% (v/v) aqueous acetonitrile.
(§8) The microtitre plates were imaged at 200 μm resolution on a Typhoon Trio Plus variable mode imager (Amersham Biosciences) with the green (532 nm) laser and the 580 BP 30 filter at the PMT voltages indicated below and at normal sensitivity. The scan height was set at +3 mm and the sample was pressed during scanning.
(§9) The fluorescence images were analysed using ImageQuant TL v2003.03 (Amersham Biosciences).

[2] = Retention of peptides in flat-bottomed polypropylene wells; conditions: flat-bottom wells, 500V scan; for Untreated fluorescence: unwashed; for Retained fluorescence: washed 15 minutes in 1 M NaCl in 10 mM tris-HCl (pH 8.0)
Procedure: (§10) The retention of peptides 2DOS-1 to 2DOS-16 (see above) on polypropylene wells of different geometries was investigated:
(§11) 10 mM tris-HCl (pH 8.0) in 50% (v/v) aqueous acetonitrile was used as the solvent for the peptides and for TAMRA.
(§12) 1 μl aliquots of 10 μM peptides 2DOS-1 to 2DOS-16 and 10 μM TAMRA were pipetted into the wells of a Costar V-bottomed polypropylene microtitre plate and a Greiner flat-bottomed polypropylene microtitre plate according to the following scheme as shown in FIG. 22:
as §4
(§13) The peptide samples in the top two rows of the microtitre plates were then incubated for 15′ minutes at room temperature in 250 μl of 1 M NaCl in 10 mM tris-HCl (pH 8.0).
as §6, §7
as §8, with “the platen” for “+3 mm”, “during,” for “during”
as §9

[3] = Retention of peptides on Greiner polypropylene V-bottom wells; conditions: 400V scan; for Untreated fluorescence: unwashed; for Retained fluorescence: washed 15 minutes in 1 M NaCl in 10 mM tris-HCl (pH 8.0)
Procedure: as §1, §2, §3, §4, §5, §6, §7, §8, §9

[4] = Retention of peptides on Greiner polystyrene V-bottom wells; conditions: 400V scan; for Untreated fluorescence: unwashed; for Retained fluorescence: washed 15 minutes in 1 M NaCl in 10 mM tris-HCl (pH 8.0)
Procedure: as §1, §2, §3, §4, §5, §6, §7, §8, §9

[5] = Retention of peptides 2DOS-1 to 2DOS-16 on a hydrophobic surface (polypropylene microtitre plate wells), water wash; conditions: 400V scan; for Initial fluorescence (×10^3): 100 μl of 10 μM peptide before drying and washing; for Recovered fluorescence (×10^3): dried, washed ten times with 250 μl water, resuspended
Procedure: The retention of peptides 2DOS-1 to 2DOS-16 on a hydrophobic surface (the wells of a polypropylene microtitre plate) was then investigated.
as §11
100 μl aliquots of 10 μM peptides 2DOS-1 to 2DOS-16 and 10 μM TAMRA were placed in the wells of a Costar microtitre plate as shown in FIG. 13:
as §8, with “plate was” for “plates were”
The peptides were allowed to evaporate to dryness overnight in the dark and the microtitre plate was again scanned as described above.
The wells were then washed ten times with 250 μl of water.
The residual surface-bound peptides were finally resuspended in 100 μl of 10 mM tris-HCl (pH 8.0) in 50% (v/v) aqueous acetonitrile and the microtitre plate was again scanned as described above.
as §9
Quantification data (using the data from the 400V scan) is given in Table 2 and shown graphically in FIG. 15.

[6] = Retention of peptides in V-bottomed polypropylene wells; conditions: V-bottom wells, 500V scan; for Untreated fluorescence: unwashed; for Retained fluorescence: washed 15 minutes in 1 M NaCl in 10 mM tris-HCl (pH 8.0)
Procedure: as §10, §11, §12, §4, §13, §6, §7
as §8, with “the platen” for “+3 mm”, “during,” for “during”
as §9

Substance: N-TAMRA-Norleu- Asp-Norleu-Ala- Norleu-Ser-Norleu- Lys-Norleu-C [Peptide 2DOS-1]
- Percent retention [1]: 52%
- Untreated fluorescence [1]: 6,458,364
- Retained fluorescence [1]: 3,366,403
- Percent retention [2]: 14%
- Untreated fluorescence [2]: 14,949,396
- Retained fluorescence [2]: 2,157,124
- Percent retention [3]: 37%
- Untreated fluorescence [3]: 3,328,960
- Retained fluorescence [3]: 1,235,460
- Percent retention [4]: 35%
- Untreated fluorescence [4]: 640,145
- Retained fluorescence [4]: 225,686
- Initial fluorescence (×10^3) [5]: 33,015 ×10^3
- Recovered fluorescence (×10^3) [5]: 7,459 ×10^3
- Percent retention [6]: 70%
- Untreated fluorescence [6]: 9,550,835
- Retained fluorescence [6]: 6,641,271

Substance: N-TAMRA-Phe-Asp- Phe-Asp-Phe-Asp- Phe-Asp-Phe-C ({TAMRA}-FDFDFDFDF) [Peptide 2DOS-10]
- Percent retention [1]: 24%
- Untreated fluorescence [1]: 6,043,214
- Retained fluorescence [1]: 1,439,375
- Percent retention [2]: 39%
- Untreated fluorescence [2]: 13,661,609
- Retained fluorescence [2]: 5,353,630
- Percent retention [3]: 22%
- Untreated fluorescence [3]: 3,043,118
- Retained fluorescence [3]: 654,623
- Percent retention [4]: 17%
- Untreated fluorescence [4]: 602,771
- Retained fluorescence [4]: 100,265
- Initial fluorescence (×10^3) [5]: 28,479 ×10^3
- Recovered fluorescence (×10^3) [5]: 2,884 ×10^3
- Percent retention [6]: 33%
- Untreated fluorescence [6]: 8,445,090
- Retained fluorescence [6]: 2,773,876

Substance: N-TAMRA-Ser-Asp- Ser-Ala-Ser-Ser- Ser-Lys-Ser-C ({TAMRA}-SDSASSSKS) [Peptide 2DOS-3]
- Percent retention [1]: 12%
- Untreated fluorescence [1]: 5,660,618
- Retained fluorescence [1]: 673,940
- Percent retention [2]: 20%
- Untreated fluorescence [2]: 14,152,875
- Retained fluorescence [2]: 2,836,015
- Percent retention [3]: 10%
- Untreated fluorescence [3]: 3,583,352
- Retained fluorescence [3]: 342,889
- Percent retention [4]: 5%
- Untreated fluorescence [4]: 744,747
- Retained fluorescence [4]: 37,388
- Initial fluorescence (×10^3) [5]: 32,913 ×10^3
- Recovered fluorescence (×10^3) [5]: 8 ×10^3
- Percent retention [6]: 22%
- Untreated fluorescence [6]: 9,020,171
- Retained fluorescence [6]: 1,951,694

Substance: N-TAMRA-Ser-Asp- Ser-Asp-Ser-Asp- Ser-Asp-Ser-C ({TAMRA}-SDSDSDSDS) [Peptide 2DOS-11]
- Percent retention [1]: 2%
- Untreated fluorescence [1]: 5,327,435
- Retained fluorescence [1]: 102,040
- Percent retention [2]: 3%
- Untreated fluorescence [2]: 13,960,552
- Retained fluorescence [2]: 476,318
- Percent retention [3]: 2%
- Untreated fluorescence [3]: 3,510,896
- Retained fluorescence [3]: 86,818
- Percent retention [4]: 1%
- Untreated fluorescence [4]: 675,269
- Retained fluorescence [4]: 7,365
- Initial fluorescence (×10^3) [5]: 26,860 ×10^3
- Recovered fluorescence (×10^3) [5]: 0 ×10^3
- Percent retention [6]: 2%
- Untreated fluorescence [6]: 9,705,293
- Retained fluorescence [6]: 192,272

Reference: patent US20090192048A1, “METHOD OF PRODUCING A […] AGENT FOR BINDING A LIGAND” (priority 2005, published 2009)
